Test results: patent US20250101135A1

Experiments:
[1] = molecular target: mouse 4-1BB on activated mouse splenocytes (mouse) (UniProt P20334); assay: flow cytometry, activated mouse splenocytes, CD8+ T cells, PE anti-human IgG Fc secondary, MFI baseline corrected
[2] = molecular target: mouse 4-1BB on activated mouse splenocytes (mouse) (UniProt P20334); assay: flow cytometry, activated mouse splenocytes, CD4+ T cells, PE anti-human IgG Fc secondary, MFI baseline corrected

Sequence of mouse 4-1BB on activated mouse splenocytes (mouse) (P20334 24-256): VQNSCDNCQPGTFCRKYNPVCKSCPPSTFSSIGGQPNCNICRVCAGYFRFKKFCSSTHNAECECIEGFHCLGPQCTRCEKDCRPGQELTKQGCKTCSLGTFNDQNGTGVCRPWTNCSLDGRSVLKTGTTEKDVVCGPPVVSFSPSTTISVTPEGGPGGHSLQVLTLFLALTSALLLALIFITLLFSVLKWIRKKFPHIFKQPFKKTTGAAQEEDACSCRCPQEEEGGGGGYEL

EC50 (read off the curve) [1]: 0.09 nM | EC50 (read off the curve) [2]: 0.08 nM
Substance: anti-mouse CD137-specific human IgG1 P329G LALA antibody (clone Lob12.3)
